Several values for one entry are separate records, joined by “and”; a condition that tells them apart may be missing. Identical values can stand only once.
Assays:
[1] = target: SARS-CoV-2-3Q-2P full-length spike (SARS-CoV-2) (UniProt P0DTC2); test: cryo-EM structure
[2] = target: SARS-CoV-2-3Q-2P full-length spike (SARS-CoV-2) (UniProt P0DTC2); test: negative stain electron microscopy
[3] = target: SARS-CoV-2-3Q-2P full-length spike (SARS-CoV-2) (UniProt P0DTC2); test: cryo-EM structure; remark: listed apart in the source
[4] = target: SARS-CoV-2-3Q-FL spike (without 2P) (SARS-CoV-2) (UniProt P0DTC2); test: cryo-EM structure

Substance | stoichiometry N [1] | stoichiometry N [2] | stoichiometry N [3] | stoichiometry N [4]
SARS-CoV-2-3Q-2P full-length spike (from UniProt P0DTC2 14-1273) (natural protein) | 3 and 6 | 3 | 9 | –
SARS-CoV-2-3Q-FL spike (without 2P) (from UniProt P0DTC2 14-1273) (natural protein) | – | – | – | 3

— doi:10.1101/2020.08.06.234674
